# Test results reported in article PMC3086059.
# Biological target: Mua fused to the T18 or T25 fragment of adenylate cyclase (BACTH) (Helicobacter pylori)
# Test: two-hybrid
# Conditions: scale: Miller units per mg of bacterial dry weight
substance,measurement,value
Mua fused to the T18 or T25 fragment of adenylate cyclase (BACTH) (natural protein),beta-galactosidase activity,1920 to 2980
